Our source for the IC50 values is patent US20140294898A1 (published 2014).

Positions of bridges follow the written chain, without caps; N, C: chain ends. Non-standard residues stand in square brackets, D forms with d. Bta = N[C@@H](Cc1csc2ccccc12)C(=O)O; NMeNle = CCCC[C@H](NC)C(=O)O; dNle = CCCC[C@@H](N)C(=O)O; NMeS = CN[C@@H](CO)C(=O)O; NMeA = CN[C@@H](C)C(=O)O; Sar = CNCC(=O)O

The test addresses T1, hPDL1(19-239)-TVMV-His (human, UniProt Q9NZQ7 19-239).
T1 construct: The construct name says 19-239, the running text says amino acids 18-239; Expressed in HEK293T cells; also called PD-L1-His; PD-L1-TVMV-His
As to the kind of experiment: HTRF competition, PD-1-Ig (20 nM) binding to human PD-L1-His (10 nM). On the procedure:
All binding studies were performed in an HTRF assay buffer consisting of dPBS supplemented with 0.1% (w/v) bovine serum albumin and 0.05% (v/v) Tween-20. […] PD-L1 fusion proteins from either human, cynomologous macaques, or mouse were used. HTRF detection was achieved using europium crypate-labeled anti-Ig monoclonal antibody (1 nM final) and allophycocyanin (APC) labeled anti-His monoclonal antibody (20 nM final). Antibodies were diluted in HTRF detection buffer and 5 μl was dispensed on top of binding reaction. The reaction was allowed to equilibrate for 30 minutes and signal (665 nm/620 nm ratio) was obtained using an EnVision fluorometer. […]
HTRF Experiments were performed essentially as outlined supra. Variant macrocyclic peptides were created as outlined herein.

T1 sequence (Q9NZQ7 other isoform, or with tags, fused parts or gaps limits assumed): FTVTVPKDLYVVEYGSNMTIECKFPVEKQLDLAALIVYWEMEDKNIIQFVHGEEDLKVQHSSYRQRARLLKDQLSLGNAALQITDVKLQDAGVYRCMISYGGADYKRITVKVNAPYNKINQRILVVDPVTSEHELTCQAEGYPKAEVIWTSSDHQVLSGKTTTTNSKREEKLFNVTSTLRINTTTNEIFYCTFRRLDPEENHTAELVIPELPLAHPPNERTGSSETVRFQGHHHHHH

B1: Compound No. 66 (peptide)
peptide: FANPHLGWSWSXRCG
HELM: PEPTIDE1{[O=C(C[*:3])[*:2]].F.[meA].N.P.H.L.[Sar].W.S.W.[meS].[CCCC[C@@H](C(=O)[*:2])N(C)[*:1]].R.C.G.[am]}$PEPTIDE1,PEPTIDE1,1:R3-15:R3$$$V2.0
SMILES: CCCC[C@H]1C(=O)N[C@@H](CCCNC(=N)N)C(=O)N[C@H](C(=O)NCC(N)=O)CSCC(=O)N[C@@H](Cc2ccccc2)C(=O)N(C)[C@@H](C)C(=O)N[C@@H](CC(N)=O)C(=O)N2CCC[C@H]2C(=O)N[C@@H](Cc2c[nH]cn2)C(=O)N[C@@H](CC(C)C)C(=O)N(C)CC(=O)N[C@@H](Cc2c[nH]c3ccccc23)C(=O)N[C@@H](CO)C(=O)N[C@@H](Cc2c[nH]c3ccccc23)C(=O)N(C)[C@@H](CO)C(=O)N1C
notes: macrocyclic peptide cyclized via the ClAc moiety with the downstream cysteine
Take B1: the IC50 was 144 nM.

B2: Compound No. 65 (peptide)
peptide: FANPHLGWSWLXRCG
HELM: PEPTIDE1{[O=C(C[*:3])[*:2]].F.[meA].N.P.H.L.[Sar].W.S.W.[meL].[CCCC[C@@H](C(=O)[*:2])N(C)[*:1]].R.C.G.[am]}$PEPTIDE1,PEPTIDE1,1:R3-15:R3$$$V2.0
SMILES: CCCC[C@H]1C(=O)N[C@@H](CCCNC(=N)N)C(=O)N[C@H](C(=O)NCC(N)=O)CSCC(=O)N[C@@H](Cc2ccccc2)C(=O)N(C)[C@@H](C)C(=O)N[C@@H](CC(N)=O)C(=O)N2CCC[C@H]2C(=O)N[C@@H](Cc2c[nH]cn2)C(=O)N[C@@H](CC(C)C)C(=O)N(C)CC(=O)N[C@@H](Cc2c[nH]c3ccccc23)C(=O)N[C@@H](CO)C(=O)N[C@@H](Cc2c[nH]c3ccccc23)C(=O)N(C)[C@@H](CC(C)C)C(=O)N1C
notes: as for B1
B2 returned an IC50 of 43 nM. Compared with the last molecule, the IC50 is about 3.3-fold lower.

B3: Compound No. 60 (peptide)
peptide: {CH2CO}-F[NMeA]NPHL[Sar]WAW[NMeNle][NMeNle]ACG-NH2
modifications: thioether N-14
SMILES: CCCC[C@H]1C(=O)N(C)[C@@H](CCCC)C(=O)N[C@@H](C)C(=O)N[C@H](C(=O)NCC(N)=O)CSCC(=O)N[C@@H](Cc2ccccc2)C(=O)N(C)[C@@H](C)C(=O)N[C@@H](CC(N)=O)C(=O)N2CCC[C@H]2C(=O)N[C@@H](Cc2c[nH]cn2)C(=O)N[C@@H](CC(C)C)C(=O)N(C)CC(=O)N[C@@H](Cc2c[nH]c3ccccc23)C(=O)N[C@@H](C)C(=O)N[C@@H](Cc2c[nH]c3ccccc23)C(=O)N1C
notes: as for B1
On to B3, for which the IC50 worked out at 43 nM.

B4: Compound No. 70 (peptide)
peptide: {CH2CO}-F[NMeA]NPHL[Sar]WSW[dNle][NMeNle]RCG-NH2
modifications: thioether N-14
SMILES: CCCC[C@H]1NC(=O)[C@H](Cc2c[nH]c3ccccc23)NC(=O)[C@H](CO)NC(=O)[C@H](Cc2c[nH]c3ccccc23)NC(=O)CN(C)C(=O)[C@H](CC(C)C)NC(=O)[C@H](Cc2c[nH]cn2)NC(=O)[C@@H]2CCCN2C(=O)[C@H](CC(N)=O)NC(=O)[C@H](C)N(C)C(=O)[C@H](Cc2ccccc2)NC(=O)CSC[C@@H](C(=O)NCC(N)=O)NC(=O)[C@H](CCCNC(=N)N)NC(=O)[C@H](CCCC)N(C)C1=O
notes: as for B1
Molecule B4 registered an IC50 of 8680 nM. This IC50 is about 200-fold higher than that of the molecule before.

B5: Compound No. 51 (peptide)
peptide: {CH2CO}-F[NMeA]NPHD[Sar]WSW[NMeNle][NMeNle]RCG-NH2
modifications: thioether N-14
SMILES: CCCC[C@H]1C(=O)N(C)[C@@H](CCCC)C(=O)N[C@@H](CCCNC(=N)N)C(=O)N[C@H](C(=O)NCC(N)=O)CSCC(=O)N[C@@H](Cc2ccccc2)C(=O)N(C)[C@@H](C)C(=O)N[C@@H](CC(N)=O)C(=O)N2CCC[C@H]2C(=O)N[C@@H](Cc2c[nH]cn2)C(=O)N[C@@H](CC(=O)O)C(=O)N(C)CC(=O)N[C@@H](Cc2c[nH]c3ccccc23)C(=O)N[C@@H](CO)C(=O)N[C@@H](Cc2c[nH]c3ccccc23)C(=O)N1C
notes: as for B1
In the case of B5, the IC50 worked out at 23 nM.

B6: Compound No. 61 (peptide)
peptide: {CH2CO}-F[NMeA]NPHL[Sar]WSM[NMeNle][NMeNle]RCG-NH2
modifications: thioether N-14
SMILES: CCCC[C@H]1C(=O)N(C)[C@@H](CCCC)C(=O)N[C@@H](CCCNC(=N)N)C(=O)N[C@H](C(=O)NCC(N)=O)CSCC(=O)N[C@@H](Cc2ccccc2)C(=O)N(C)[C@@H](C)C(=O)N[C@@H](CC(N)=O)C(=O)N2CCC[C@H]2C(=O)N[C@@H](Cc2c[nH]cn2)C(=O)N[C@@H](CC(C)C)C(=O)N(C)CC(=O)N[C@@H](Cc2c[nH]c3ccccc23)C(=O)N[C@@H](CO)C(=O)N[C@@H](CCSC)C(=O)N1C
notes: as for B1
B6: the IC50 was determined as 31 nM.

B7: Compound No. 53 (peptide)
peptide: {CH2CO}-F[NMeA]NPHLHWSW[NMeNle][NMeNle]RCG-NH2
modifications: thioether N-14
SMILES: CCCC[C@H]1C(=O)N(C)[C@@H](CCCC)C(=O)N[C@@H](CCCNC(=N)N)C(=O)N[C@H](C(=O)NCC(N)=O)CSCC(=O)N[C@@H](Cc2ccccc2)C(=O)N(C)[C@@H](C)C(=O)N[C@@H](CC(N)=O)C(=O)N2CCC[C@H]2C(=O)N[C@@H](Cc2c[nH]cn2)C(=O)N[C@@H](CC(C)C)C(=O)N[C@@H](Cc2c[nH]cn2)C(=O)N[C@@H](Cc2c[nH]c3ccccc23)C(=O)N[C@@H](CO)C(=O)N[C@@H](Cc2c[nH]c3ccccc23)C(=O)N1C
notes: as for B1
Consider B7, for which the IC50 was found to be 34 nM.

B8: Compound No. 55 (peptide)
peptide: {CH2CO}-F[NMeA]NPHLPWSW[NMeNle][NMeNle]RCG-NH2
modifications: thioether N-14
SMILES: CCCC[C@H]1C(=O)N(C)[C@@H](CCCC)C(=O)N[C@@H](CCCNC(=N)N)C(=O)N[C@H](C(=O)NCC(N)=O)CSCC(=O)N[C@@H](Cc2ccccc2)C(=O)N(C)[C@@H](C)C(=O)N[C@@H](CC(N)=O)C(=O)N2CCC[C@H]2C(=O)N[C@@H](Cc2c[nH]cn2)C(=O)N[C@@H](CC(C)C)C(=O)N2CCC[C@H]2C(=O)N[C@@H](Cc2c[nH]c3ccccc23)C(=O)N[C@@H](CO)C(=O)N[C@@H](Cc2c[nH]c3ccccc23)C(=O)N1C
notes: as for B1
Take B8: the IC50 was 4 nM.

B9: Compound No. 63 (peptide)
peptide: {CH2CO}-F[NMeA]NPHL[Sar]WSL[NMeNle][NMeNle]RCG-NH2
modifications: thioether N-14
SMILES: CCCC[C@H]1C(=O)N(C)[C@@H](CCCC)C(=O)N[C@@H](CCCNC(=N)N)C(=O)N[C@H](C(=O)NCC(N)=O)CSCC(=O)N[C@@H](Cc2ccccc2)C(=O)N(C)[C@@H](C)C(=O)N[C@@H](CC(N)=O)C(=O)N2CCC[C@H]2C(=O)N[C@@H](Cc2c[nH]cn2)C(=O)N[C@@H](CC(C)C)C(=O)N(C)CC(=O)N[C@@H](Cc2c[nH]c3ccccc23)C(=O)N[C@@H](CO)C(=O)N[C@@H](CC(C)C)C(=O)N1C
notes: as for B1
In the case of B9, the IC50 was determined as 3660 nM.

B10: Compound No. 62 (peptide)
peptide: {CH2CO}-F[NMeA]NPHL[Sar]WSI[NMeNle][NMeNle]RCG-NH2
modifications: thioether N-14
SMILES: CCCC[C@H]1C(=O)N(C)[C@@H](CCCC)C(=O)N[C@@H](CCCNC(=N)N)C(=O)N[C@H](C(=O)NCC(N)=O)CSCC(=O)N[C@@H](Cc2ccccc2)C(=O)N(C)[C@@H](C)C(=O)N[C@@H](CC(N)=O)C(=O)N2CCC[C@H]2C(=O)N[C@@H](Cc2c[nH]cn2)C(=O)N[C@@H](CC(C)C)C(=O)N(C)CC(=O)N[C@@H](Cc2c[nH]c3ccccc23)C(=O)N[C@@H](CO)C(=O)N[C@@H]([C@@H](C)CC)C(=O)N1C
notes: as for B1
With B10, the IC50 amounted to 475 nM.

B11: Compound No. 54 (peptide)
peptide: {CH2CO}-F[NMeA]NPHLRWSW[NMeNle][NMeNle]RCG-NH2
modifications: thioether N-14
SMILES: CCCC[C@H]1C(=O)N(C)[C@@H](CCCC)C(=O)N[C@@H](CCCNC(=N)N)C(=O)N[C@H](C(=O)NCC(N)=O)CSCC(=O)N[C@@H](Cc2ccccc2)C(=O)N(C)[C@@H](C)C(=O)N[C@@H](CC(N)=O)C(=O)N2CCC[C@H]2C(=O)N[C@@H](Cc2c[nH]cn2)C(=O)N[C@@H](CC(C)C)C(=O)N[C@@H](CCCNC(=N)N)C(=O)N[C@@H](Cc2c[nH]c3ccccc23)C(=O)N[C@@H](CO)C(=O)N[C@@H](Cc2c[nH]c3ccccc23)C(=O)N1C
notes: as for B1
As for B11, the IC50 was found to be 26 nM.

B12: Compound No. 56 (peptide)
peptide: {CH2CO}-F[NMeA]NPHL[NMeS]WSW[NMeNle][NMeNle]RCG-NH2
modifications: thioether N-14
SMILES: CCCC[C@H]1C(=O)N(C)[C@@H](CCCC)C(=O)N[C@@H](CCCNC(=N)N)C(=O)N[C@H](C(=O)NCC(N)=O)CSCC(=O)N[C@@H](Cc2ccccc2)C(=O)N(C)[C@@H](C)C(=O)N[C@@H](CC(N)=O)C(=O)N2CCC[C@H]2C(=O)N[C@@H](Cc2c[nH]cn2)C(=O)N[C@@H](CC(C)C)C(=O)N(C)[C@@H](CO)C(=O)N[C@@H](Cc2c[nH]c3ccccc23)C(=O)N[C@@H](CO)C(=O)N[C@@H](Cc2c[nH]c3ccccc23)C(=O)N1C
notes: as for B1
Consider B12, for which the IC50 was 13 nM.

B13: Compound No. 64 (peptide)
peptide: {CH2CO}-F[NMeA]NPHL[Sar]WS[Bta][NMeNle][NMeNle]RCG-NH2
modifications: thioether N-14
SMILES: CCCC[C@H]1C(=O)N(C)[C@@H](CCCC)C(=O)N[C@@H](CCCNC(=N)N)C(=O)N[C@H](C(=O)NCC(N)=O)CSCC(=O)N[C@@H](Cc2ccccc2)C(=O)N(C)[C@@H](C)C(=O)N[C@@H](CC(N)=O)C(=O)N2CCC[C@H]2C(=O)N[C@@H](Cc2c[nH]cn2)C(=O)N[C@@H](CC(C)C)C(=O)N(C)CC(=O)N[C@@H](Cc2c[nH]c3ccccc23)C(=O)N[C@@H](CO)C(=O)N[C@@H](Cc2csc3ccccc23)C(=O)N1C
notes: as for B1
As to B13, the IC50 was 7 nM. This IC50 is about 1.9-fold lower than that of the molecule before.

B14: Compound No. 52 (peptide)
peptide: FANPHLXWSWXXRCG
modifications: N-terminal chloroacetyl (ClAc) on residue 1 cyclized as thioether with Cys14; N-methyl-Ala (mAla) at 2; Dab (2,4-diaminobutyric acid, written X) at 7; N-methyl-norleucine (mNle, written X) at 11 and 12; C-terminal amide (NH2)
notes: as for B1
Consider B14, for which the IC50 is 24 nM.
